From patent US8383602B2, “Use of TRIM72 as a target for muscle and heart enhancer” (Korea University Industrial & Academic Collaborative …, priority 2007, dated 2013) come the findings set out here.

What all share (type): cell-based
The test system of data set [1] is TRIM72 promoter. In words: TRIM72 promoter-luciferase activity during muscle differentiation, pharmacological inhibitors. To be noted: FIG. 14A. How it is done:
(§1) A. CEMI promoter-luciferase fused gene having E2 and E3 was expressed in C2C12 myoblasts for 24 hours and muscle differentiation into myotubes was induced for 24 hours. While inducing muscle differentiation, PI3K inhibitor (LY294002, 10 μM), mTOR inhibitor (rapamycin, 100 nM), GSK3β inhibitor (LiCl, 5 mM) and MAPK inhibitor (PD98059, 10 μM) were treated and luciferase activity was measured. B. CEMI promoter-luciferase fused gene having E2 and E3 and MyoD gene were expressed in C2C12 myoblasts for 24 hours. After treating with various agents for 24 hours, luciferase activity was measured. C. […] After inducing muscle differentiation into myotubes for 24 hours, luciferase activity was measured. […] After inducing differentiation for 24 hours, luciferase activity was measured.
(§2) IRS-1 constructs (full-length, 1-3729; PH-PTB domain, 1-900; Mid-region, 880-2608; Rear-region, 2581-3729) and TRIM72 cDNA constructs (full-length, 1-1431; ΔRING, 181-1431; coiled-coil, 367-1020; CCSPRY, 367-1431; SPRY, 687-1431; Δcoiled-coil) were generated by PCR using the primers described in Table 1 and cloned into pCMV-Tag2B vector and pCMV-3Tag4a vector (Stratagene), respectively. […] Luciferase activity in cell lysates was measured by using the luciferase assay system (Promega) in a Luminoskan Ascent (Thermo Labsystem). […]

For data set [2], the system named is TRIM72 promoter. Kind of data set: MyoD-dependent TRIM72 promoter-luciferase activity in myoblasts, pharmacological inhibitors. The settings on record: agents treated 24 hours, FIG. 14B. How it is done:
as §1, §2

The subject of data set [3] is IRS-1. In words: IRS-1 expression in 293 cells co-transfected with TRIM72. The settings on record: IRS-1 and TRIM72 transfected, FIG. 11A. How it is done: (§3) A. IRS-1 (6 μg) and TRIM72 (2 μg) were transfected into HEK 293 cells for 30 hours and expression of IRS-1 and TRIM72 was investigated after treating with the proteosomal degradation inhibitor MG132 for 10 hours. B. IRS-1 (3 μg) and TRIM72 at various concentrations (0, 0.5, 1, 2 μg) were transfected into 293 cells for 30 hours and expression of IRS-1 was investigated. C. HA-TRIM72 (or HA-TRIM72 C14A), Flag-IRS-1 and His-ubiquitin were transfected into 293 cells for 30 hours and MG132 was treated for 10 hours. Ubiquitination of IRS-1 was identified by immunoblotting using His after immunoprecipitation with Flag antibody. Red brace denotes ubiquitination of IRS-1.
as §2
(§4) Western blotting and immunostaining were performed as described in Kim, K. B. et al. Proteomics 6, 2444-53 (2006). […] The immunoprecipitates were analyzed by Western blotting.

Data set [4] relates to C2C12 myoblasts. Kind of data set: Muscle differentiation of C2C12 myoblasts transfected with wild type or mutant TRIM72 genes. The settings on record: genes expressed in C2C12 myoblasts, differentiation induced, FIG. 10B. How it is done:
(§5) C2C12 cells were purchased from ATCC and grown in Dulbecco's modified Eagle's medium (DMEM) supplemented with 2% penicillin/streptomycin (WelGene) and 10% fetal bovine serum (WelGene) in a 5% CO2 incubator at 37° C. Confluent C2C12 myoblasts were differentiated into myotubes by incubation with DMEM supplemented with the same antibiotics and 2% horse serum. Every 48 hours, the myotubes were fed with fresh DMEM containing 2% horse serum. Male C57BL/Ksj mice were maintained on a controlled lighting schedule, with a 12-h dark period. Twenty-week-old mice were used in all of the experiments in this study.
as §2, with “respectively. Alternatively, TRIM72 and TRIM72 C14A were generated by PCR reaction using the primers described in Table 1 and cloned into pHM6-HA vector, pCMV-Tag2B or pHM6 vector (Roche).” for “respectively.”

The subject of data set [5] is IRS-1. Kind of data set: IRS-1 ubiquitination in 293 cells. The settings on record: TRIM72, IRS-1 and ubiquitin co-expressed in 293 cells, MG132 treated, FIG. 11C. How it is done: as §3
293T cells are transfected with pCMV-HA-TRIM72 (1 μg) or pCMV-HA-TRIM72 C14A (1 μg) and pCMV-Flag-IRS-1 (3 μg) and His-ubiquitin (3 μg) using Polyfect (Qiagen). Twenty-four hours after transfection, cells were treated with MG132 (5 μM) for 12 h. Cell lysates were immunoprecipitated with anti-Flag for 2 h. The immunoprecipitates were analyzed by Western blotting against anti-His antibody.

The test system of a further data set is PI3K. Kind of data set: IGF-1-induced PI3K activation (PI(3)K activity of anti-p85 immunoprecipitates). To be noted: FIG. 7B. From the text: (§6) An adenoviral vector with TRIM72 was constructed using ViraPower™ Adenoviral Expression System (Invitrogen) under control of the cytomegalovirus (CMV). Full-length-TRIM72 ORF (open reading frame) was cloned into an entry vector pENTR (Invitrogen) using the restriction enzyme sites (SalI and NotI) and homologously recombined into a destination vector pAd/CMV/V5-DEST (Invitrogen) which has the adenoviral genome and CMV promotor. The cloned TRIM72-adenoviral genome was linearlized by cutting with PacI restriction enzyme and transfected into 293A cells using a transfection agent (GenePorter II). After 10-15 days of the transfection, the supernatant comprising adenovirus was re-transfected into 293A cells to obtain the amplified adenovirus. The obtained adenovirus supernatant was purified into adenovirus particles using cessium chlororide. C2C12 myoblasts grown in 6 well plates were infected by adenovirus with the dosage of 4×10^10 VP/ml.
SiRNA oligomer targeting TRIM72 was designed from Dharmacon. Target sequence of TRIM72 is 5′-[…]-3′. The cell cultures were transfected with control RNAi and TRIM72 specific siRNA using transfection reagent (TransIT®-TKO, Mirus), which was prepared according manufacturer's instruction. Transfected cells were then transferred to media containing 2% horse serum at least for 48 h. […]

For a further data set, the system named is IRS-1 with PI3K. Kind of data set: Molecular association of IRS-1 with PI3K after IGF-I stimulation (immunoprecipitation). The settings on record: FIG. 8.
Excerpt: as §6
(§7) SiRNA oligomer targeting TRIM72 was designed from Dharmacon. Target sequence of TRIM72 is 5′-[…]-3′. The cell cultures were transfected with control RNAi and TRIM72 specific siRNA using transfection reagent (TransIT®-TKO, Mirus), which was prepared according manufacturer's instruction. […]
as §4

In a further data set the test system is IGFR. Kind of data set: IGF-I-induced tyrosine phosphorylation of IGFR (immunoprecipitation). To be noted: FIG. 8.
Excerpt: as §6, §7, §4

Data set [6] deals with IRS-1. In words: IGF-I-induced tyrosine phosphorylation of IRS-1 (immunoprecipitation). The settings on record: IGF-I stimulation, FIG. 8.
Excerpt: as §6, §7, §4

For the next data set, the system named is ERK1/2. In words: IGF-1-induced ERK1/2 phosphorylation after TRIM72 overexpression or knockdown. The settings on record: myoblasts (overexpression) / myotubes (knockdown), FIG. 7A.
Excerpt: as §6, §7, §4

The test system of a further data set is M-Cadherin. In words: M-Cadherin expression after TRIM72 overexpression or Si-RNA. The settings on record: FIGS. 12C-12E.
Excerpt: as §6, §7, §4

For another data set, the system named is AKT. Kind of data set: IGF-1-induced AKT phosphorylation after TRIM72 overexpression or knockdown. The settings on record: myoblasts (overexpression) / myotubes (knockdown), FIG. 7A.
Excerpt: as §6, §7, §4

In data set [7] the test system is C2C12 myoblasts. In words: Muscle differentiation (myogenesis) after TRIM72 overexpression by adenoviral vector or TRIM72 interference by SiRNA. How it is done:
as §5, §6
SiRNA oligomer targeting TRIM72 was designed from Dharmacon. Target sequence of TRIM72 is 5′-[…]-3′. The cell cultures were transfected with control RNAi and TRIM72 specific siRNA using transfection reagent (TransIT®-TKO, Mirus), which was prepared according manufacturer's instruction. Transfected cells were then transferred to media containing 2% horse serum at least for 48 h.
Western blotting and immunostaining were performed as described in Kim, K. B. et al. Proteomics 6, 2444-53 (2006). For immunoprecipitation, cells were lysed in buffer containing 20 mM Tris-HCl pH 7.4, 137 mM NaCl, 1 mM MgCl2, 1 mM CaCl2, 20 mM NaF, 10 mM Na4P2O7, 1% NP-40, 1 mM Na3VO4, 1 mM PMSF and protease inhibitor cocktail (Roche). The whole cell lysates (600 μg protein) were incubated with specific antibodies for 90 min and then with 50 μl of Protein A-sepharose or G-agarose bead (50%) slurry for 1 h. The immunoprecipitates were analyzed by Western blotting.

Residues, ends and D or L forms follow the SMILES beside them. *: point of attachment. Cbz = O=C(OCc1ccccc1)*

In the case of `O=c1cc(N2CCOCC2)oc2c(-c3ccccc3)cccc12` [LY294002], the “decrease of TRIM72 transcription in IGF-I induced muscle differentiation” value in the data set with TRIM72 promoter [1] (LY294002 10 μM) is given as 4 times.
Consider `[Cl-].[Li+]` [LiCl], for which the “MyoD-dependent TRIM72 transcription in myoblasts” value in the data set with TRIM72 promoter [2] is on record as “not affected”. For the same molecule, the “change of TRIM72 transcription in IGF-I induced muscle differentiation” value in the data set with TRIM72 promoter [1] (rapamycin 100 nM, LiCl 5 mM) is “no change”.
For `CC(C)C[C@@H](C=O)NC(=O)[C@H](CC(C)C)NC(=O)[C@H](CC(C)C)NC(=O)OCc1ccccc1` [MG132, reference compound] (Cbz-Leu-Leu-Leu-aldehyde), in the data set on IRS-1 [3], the “expression of IRS-1” value is given as “expressed normally”.

B1: C14A TRIM72: TRIM72 mutant protein in which the 14th amino acid is substituted from cystine to alanine (protein, listed as Mus musculus)
chain: MSAAPGLLRQELSAPLCLQLFDAPVTAECGHSFCRACLIRVAGEPAADGTVACPCCQAPTRPQALSTNLQLSRLVEGLAQVPQGHCEEHLDPLSIYCEQDRTLVCGVCASLGSHRGHRLLPAAEAQARLKTQLPQQKMQLQEACMRKEKTVAVLEHQLVEVEETVRQFRGAVGEQLGKMRMFLAALESSLDREAERVRGDAGVALRRELSSLNSYLEQLRQMEKVLEEVADKPQTEFLMKFCLVTSRLQKILSESPPPARLDIQLPVISDDFKFQVWKKMFRALMPALEELTFDPSSAHPSLVVSSSGRRVECSDQKAPPAGEDTRQFDKAVAVVAQQLLSQGEHYWEVEVGDKPRWALGVMAADASRRGRLHAVPSQGLWLLGLRDGKILEAHVEAKEPRALRTPERPPARIGLYLSFADGVLAFYDASNPDVLTPIFSFHERLPGPVYPIFDVCWHDKGKNAQPLLLVGPEQEQA
modifications: or SEQ ID NO 2
notes: TRIM72 mutant protein in which the 14th amino acid is substituted from cystine to alanine
B1: the muscle differentiation entry in the data set with C2C12 myoblasts [4] was “enhanced”. For the same molecule, the IRS-1 ubiquitination entry with IRS-1 [5] is “completely inhibited”.

B2: TRIM72: TRIM72 protein (SEQ ID NO: 1 or 2) or its gene, overexpressed via adenoviral vector or plasmid; negative regulator of muscle differentiation (protein)
chain: MSAAPGLLHQELSCPLCLQLFDAPVTAECGHSFCRACLGRVAGEPAADGTVLCPCCQAPTRPQALSTNLQLARLVEGLAQVPQGHCEEHLDPLSIYCEQDRALVCGVCASLGSHRGHRLLPAAEAHARLKTQLPQQKLQLQEACMRKEKSVAVLEHQLVEVEETVRQFRGAVGEQLGKMRVFLAALEGSLDCEAERVRGEAGVALRRELGSLNSYLEQLRQMEKVLEEVADKPQTEFLMKYCLVTSRLQKILAESPPPARLDIQLPIISDDFKFQVWRKMFRALMPALEELTFDPSSAHPSLVVSSSGRRVECSEQKAPPAGEDPRQFDKAVAVVAHQQLSEGEHYWEVDVGDKPRWALGVIAAEAPRRGRLHAVPSQGLWLLGLREGKILEAHVEAKEPRALRSPERRPTRIGLYLSFGDGVLSFYDASDADALVPLFAFHERLPRPVYPFFDVCWHDKGKNAQPLLLVGPEGAEA
modifications: left off: small tags and cut ends
notes: negative regulator of muscle differentiation
With B2, the muscle differentiation entry in the data set with C2C12 myoblasts [4] is recorded as “inhibited”. Moreover, in the data set with IRS-1 [5], the IRS-1 ubiquitination result is listed as “increased”. Also, the “expression of IRS-1” value in the data set on IRS-1 [3] is “decreased”. For the same molecule, in the data set on PI3K, the “IGF-1-induced PI3K activation” value is “abrogated”. Further, the “molecular association of IRS-1 with PI3K after IGF-I stimulation” value in the data set on IRS-1 with PI3K is given as “weakened”. In the data set on IGFR, the “tyrosine phosphorylation of IGFR induced by IGF-I” value is recorded as “not changed”. Also, the “tyrosine phosphorylation of IRS-1” value in the data set with IRS-1 [6] is listed as “decreased”. Further, in the data set on ERK1/2, the “IGF-1-induced ERK1/2 phosphorylation” value is “not changed”. Besides, in the data set with M-Cadherin, the “expression of M-Cadherin” value was “decreased”. The “IGF-1-induced AKT phosphorylation” value in the data set with AKT was “inhibited”. Besides, the myogenesis result with C2C12 myoblasts [7] (C2C12, FIG. 6A (H&E staining)) is listed as “prevented”. For the same molecule, the “myogenesis as determined by expression level of myogenesis marker proteins (myogenin, caveolin-3 and MyHC) and nucleus number per myotubes” value with C2C12 myoblasts [7] (C2C12, FIGS. 6C and 6D) was “completely prevented”. Also, the “amount of MyHC” value in the data set with C2C12 myoblasts [7] (C2C12, MyHC staining, FIG. 6B) was “decreased”. Moreover, in the data set on C2C12 myoblasts [7] (overexpression in myoblasts, FIG. 6), the fusion between cells entry is “completely inhibits”.
